For one variant, response results are on record in paper PMC12713080.

Sequences and labels used below:
B1: HA‐TAK1 [human] / Flag‐TRAF2 [not stated] (parent)
chain 1: MSTASAASSSSSSSAGEMIEAPSQVLNFEEIDYKEIEVEEVVGRGAFGVVCKAKWRAKDVAIKQIESESERKAFIVELRQLSRVNHPNIVKLYGACLNPVCLVMEYAEGGSLYNVLHGAEPLPYYTAAHAMSWCLQCSQGVAYLHSMQPKALIHRDLKPPNLLLVAGGTVLKICDFGTACDIQTHMTNNKGSAAWMAPEVFEGSNYSEKCDVFSWGIILWEVITRRKPFDEIGGPAFRIMWAVHNGTRPPLIKNLPKPIESLMTRCWSKDPSQRPSMEEIVKIMTHLMRYFPGADEPLQYPCQYSDEGQSNSATSTGSFMDIASTNTSNKSDTNMEQVPATNDTIKRLESKLLKNQAKQQSESGRLSLGASRGSSVESLPPTSEGKRMSADMSEIEARIAATTAYSKPKRGHRKTASFGNILDVPEIVISGNGQPRRRSIQDLTVTGTEPGQVSSRSSSPSVRMITTSGPTSEKPTRSHPWTPDDSTDTNGSDNSIPMAYLTLDHQLQPLAPCPNSKESMAVFEQHCKMAQEYMKVQTEIALLLQRKQELVAELDQDEKDQQNTSRLVQEHKKLLDENKSLSTYYQQCKKQLEVIRSQQQKRQGTS
chain 2: MAAASVTPPGSLELLQPGFSKTLLGTKLEAKYLCSACRNVLRRPFQAQCGHRYCSFCLASILSSGPQNCAACVHEGIYEEGISILESSSAFPDNAARREVESLPAVCPSDGCTWKGTLKEYESCHEGRCPLMLTECPACKGLVRLGEKERHLEHECPERSLSCRHCRAPCCGADVKAHHEVCPKFPLTCDGCGKKKIPREKFQDHVKTCGKCRVPCRFHAIGCLETVEGEKQQEHEVQWLREHLAMLLSSVLEAKPLLGDQSHAGSELLQRCESLEKKTATFENIVCVLNREVERVAMTAEACSRQHRLDQDKIEALSSKVQQLERSIGLKDLAMADLEQKVLEMEASTYDGVFIWKISDFARKRQEAVAGRIPAIFSPAFYTSRYGYKMCLRIYLNGDGTGRGTHLSLFFVVMKGPNDALLRWPFNQKVTLMLLDQNNREHVIDAFRPDVTSSSFQRPVNDMNIASGCPLFCPVSKMEAKNSYVRDDAIFIKAIVDLTGL

Variants of B1 are the subject of this test. The experiment in a line: co-immunoprecipitation (anti-HA beads), IB quantified. The following applies: with Flag‐TRAF2; HEK293T cells cotransfected; mean+/-SD, n = 3; read off a plot.
Regarding chain 1 H154A M196A, the response was found to be 0.25.
